# Test results reported in the DeepSol protein solubility set.
# Assay: soluble on expression in E. coli; label from the status in PepcDB or PDB records
row,Sequence,soluble on expression in E. coli
1,MKVEPYRLVVNEHQVNNTNSKENLKIVQLSDLHIKKDFNADRLDKVIQKTNEQNPDFIIFSGDLYDNYSQYNENEAVISKLKSLKAKYGKIAIWGNRDYGGGAVKEYANIMAESDFSLLRNENQVFTLDNGKKILFTGLDDALLGNPQFPSPNQMAETSYDILLTHEPDEVSQYQNKGYELILSGHSHGGQINVPLIPQIQKKATALMSHANNYTGGLYQLGANEKLYVNTGIGTTHLSARFGVAPEIAVLTFLEHHHHHH,not soluble
2,MIILMSKPLSEKKTSNNISDLIYGLLKEDIFNFVLKPGQRFTETDLSERYEASRTPIRQALYRLEQEGFVHVHFRSGWEIRPLEFKYYQELFDLRMILEKEAVKRLCELEHPEQLPALIELKKMWLIAPVDYLTDTKTLVLQSEDFHCALVRAAGNQQIAKIHQEASEKIRIVLSLGAMKEFDIAHAYQDHGAILQCILNKDAEQAIHLAEHHVLESIHEVKNITLQMISAIH,not soluble
3,MLFCPLLLIFLIANSNGEPLPPDMKDLQNHLDTFQKAVDTGDKKALREMMPVNQRISEEKLDEFIKTRKSFKMTAKSAQATSSGITGKVDYAIGKATLLLDVVLEKSSSSPSAYKFVSISKQSIPSQRREIPDCFYTLLIMCPYDLIVALAQTAENVLKG,not soluble
4,MGSDKIHHHHHHMEELFTYKEFIKMMQNYGIRHKKRKLRRNENVMTNSSSPNSVILLIKGYICSYTCESPETLLSVFEPGVFLSYSILEDLPPLVTNIALSEECIVYEYEKEDIEYALSLFPENFGFQYFFLKKIGRHLYYKALLNAKDHQEKLYYTIKYLGKLIGEKDGKGNIVLPPEITIKILIEYSTLSKAAFYRQRIRLIEEEILKPHKKTFLVPKKVVKHYEKQLTSI,not soluble
5,MGSDKIHHHHHHMAYADKKLYTDAGFTLERGEHLGIVGQNGAGKSTLIKILTGKVLPIAGRVEWKKKIQIGYLDQYADIPSGMSLIDFLHTAYSDLYDKEKKMTDLYSKYAELVDDKLLERATRFQNELDAADFYSIDNNVEQVITGLGLDSIGRDHIISEMSGGQRAKIILAKLLLEGNDVIILDEPTNYLDVSHIKWLEGYLQNYDGAALIISHDFDFLNNVANVILDVSFNTLTKYRGNFDQAMRQKTEKTEQQLRAYNKQQEVIKKTKTFIQKNKARASTTGRAKSREKMLAHMDIIEPPQTNPKATFKFPYIESQSTDALKAERLVVGYDPKKPVLNPITFSMSSGDKIVFTGFNGAGKSTLIKTLLGILPAISGKSKFSPSAKTNYFDQDLIWDDDKKTPLQIMQAAYPLEEQKQLRQRLGAAGINADNATKQMCLLSGGEQTKVKLALMELTPSNFLILDEPTNHLDEATKNSLKKAIQKFDGSLILVTHERSFYEGWIDKVIDIASMSNMQPGEVEE,not soluble
6,MSLYKADMLGDAYEYLIKQFADDAGKKGGEFYTPKAVVQLVVELIDPRPGHSVYDPTCGSGGMLVESAHHVSGLPDGTLMGKPNVLLYGQEKNLGTWAIAKLNLYLHNMHASIERGDTLVEPKHLDGDYLKTFDRVIANPPFSAKSWWTPLELSNENEQENGKKVKAPNYKQVSDPYGRLVYGVPPRGYADLAFAQHMLASLKADGRMGVILPHGVLFRSGEEGKIREGLLFGTGAASGNQPGDVIEAIVGLPSALFYNTGIPACVLILNKQKPSALKDKVIIIDGSRDYLEGKAQNSLHAEDILRIVSTHKAAFEQQVEVENYCRLVTLDEIRSNDGNLNIVRYIDNGESDEVVNVAATLAHMATLAKEEAQIDQRLNRYLMELGLLETGEGHHHHHH,not soluble
7,MKFGTVWKYYFTESLLKATIRTPSQLNLAPNALRPVLDQLCRLFPQNPTVQIRPIRLAGVRGEEIKAQASATQLIFHIHGGAFFLGSLNTHRALMTDLAARTQMQVIHVDYPLAPEHPYPEAIDAIFDVYQALLVQGIKPKDIIISGDSCGANLALALCLRLKQQPELMPSGLILMSPYLDLTLTSESLRFNQKHDALLSIEALQAGIKHYLTDDIQPGDPRVSPLFDDLDGLPPTLVQVGSKEILLDDSKRFREKAEQADVKVHFKLYTGMWHNFQMFNAWFPEAKQALADIAEFAHSLDLD,soluble
8,VTALLDVNVLIALGWPNHVHHAAAQRWFTQFSSNGWATTPITEAGYVRISSNRSVMQVSTTPAIAIAQLAAMTSLAGHTFWPDDVPLIVGSAGDRDAVSNHRRVTDCHLIALAARYGGRLVTFDAALADSASAGLVEVL,not soluble
9,MQGLTATLLPFGATLAKLTFPDKNGKNQDLVLGFDTIDEFEKDAASIGKTVGRVANRIKNSTLHFDGKQYTMTPNNGPHYLHGGPNGLGYRKWEVVRHAPESVSFSVRANEQDDGLPGDAKIDVTYTVNDRNQLIIEHHATCDTPGLLALTNHAYWNLDGSDTVAEHFLEMEADEFVEVDDTFCPTGAIRSVTDTGFDFRSGKQLKESGKDAEELLDLDNDLVITKKTP,not soluble
10,MSLSLGISCFLVKKKSILNKDFESKEKLSSQTFEPEKVEKFLWDIYDKYGFDFTEYRKDSIIRRIKISMLRYCMTNFDEFSHLALTDQDVFEQLFLDFSINTTNFFRDPEVFMFLREKVLLFLDSYSHIRIWCVGCSNGKEPYSLAIILKELGMLHKVQIYATDINPYVIEEAKNGLYSVSTINTDIANYKKSGGSKNFTDYFEVNGNYMKVKDDFKDNILFFQHSVIEKGILNEFQMILCRNVMIYFDIPLQKKVLRHFYNSLDSGGFLVMGKSEGMLLNNGYEYFADYNEKYSVYRRKEGHHHHHH,not soluble
11,MSKVMNALKQSQQKYLQAQPVSRRTYTEQEPTAMNPSRWLHLALWLVPGLVTAGVMTYQRYELVQQEVANRQTEPTTVQVDAPLERLAYPEFQDLQPTFVESGLDEPYPEEDVTALADNIVAPPATIQASGQQSASNKALGDLDLTQLSPELALRVQAIMRDQSSEPATPSTPTSAAVSLTQHSDRYQGQLPALNFQMHAFSSNEQKRWIKVNGVEYREGDMLTPEVKLESIKPQSSVIIFGGEEIEIPALYDWKG,not soluble
12,MNYTLKNDHLNVVVDTFGAEMHSIQHDDIEYLWQADAKFWGRHAPVLFPIVGKLKNGEYRYNDKTYKMGGHGFARDNDFELIKKSADELVFELRDNEDSLNHYPFHFVFRVSYKLVDNKIRVRYEVKNEDEKFMSFGVGAHPAFNVPLKNGTFEDYQLTISPDEKRTFIPLDPPSGTLKLDERVESQVSQLPLTRALFDKDALVYTSSKEMKVSLTNKLDDHGVSLTWKNMPYFGLEHHHHHH,not soluble
13,MTLHELLEKPVWKMTGEELLFLAQQGSTQQEGDTQDKAPAKEERHFVYGLSGLARLFGCSLPTANRIKQSGKIDRAITQIGRKIIIDADLALELAGRKVGGRR,not soluble
14,GPGSMNFVPLYRSILKGIHTAKQHPYHLQDIRFILSYPLVKPVYYATKPNSELKQLEPLQGIDTPLLVRTCLEDLRRAFMSVPSKDMSVAQQFVYMRELGWLKCRLENIASESTDAILKEARVVASEVTDDDFLDDQIIVRQGRPNNKELQCVQTGNNGSEMGDCGYGVASAGAIGLRYEMFILQNVAPLPLVKEFLSSFSQNTEAAAAAATSNQKLQEFARRYVPRTVVCQNEDLTLTITVNAFDAALTRKSTEENNPFARVHRYFMIRFDLSPSDPLVLGVDVVNSYFLRLDAGSAELVEDIGYLHAADVWKLSQELRVKGSGSSTDSDDTKDNGCVDGSVSSKEHAAEGNVNCMDHNEHEHNPTSHFELSFINPSDGPTIMKGQLYYTLRTKSSASASKMNVGVISFGHILLFNDE,not soluble
15,MENPHEQVQANILSRIIGNVKRLNESVAILNQELVTINNRNKNLEIMGAICDNYHSSVQFNLEATNNKKPPL,not soluble
16,AMDSIAKRPRTRLSPLKRKQQLMEIALEVFARRGIGRGGHADIAEIAQVSVATVFNYFPTREDLVDEVLNHVVRQFSNFLSDNIDLDLHAKENIANITNAMIELVVQDNHWLKVWFEWSASTRDEVWPLFVTTNRTNQLLVQNMFIKAIERGEVCDQHNPEDLANLFHGICYSLFVQANRTNNTAELSKLVSSYLDMLCIYKREHE,soluble
17,MGHHHHHHSHMEETRAGRYIVRAGSGGQTEDTASGAESVLATLAAVRTRRRSVVCDGPPGSPTDSARHMSDLASLALTAEFGLGCLEAYVRINAGQVLPVVWPPGWNLVLQEIETDEDFKPEDVKAWSHYLCCQTRLAFVGRFVNEGVLSPDQQKKTAVCLISDEGYVFCYVREDTAVYYLARNLMEFARVGLRAVETLHCMRYLTSSLVKRYFRPLLRAWSLGLDTMARFIIRHHGQFMPLTYPPGTELRLCNLRCFENSVEGGHLLRNIKTAFGMRVLGLGTVSLKGENAPFPHLRWPVDLIPIVVAYTGAVYACDVRDDRYIRVGDNLNTFMCLGLNLLFENRRFSGHNGIYDRVPDCPKGRQHR,not soluble
18,MAHHHHHHMNPNQPPRRKTAFNEEFDVMQAIQEDRMAYHASIACHERCVHNYFFNNFYWREKTCMDNCLDKINQATVITNINYGKFEDVESKK,not soluble
19,MGSDKIHHHHHHMRKITLRSKLDGREIVFEENQNLFDIAREYQKYYRYKILAARVNNRIIELFRTPDRSGELEFLDLTDPDGLRIYQRGLVFLASLAVRKLNSEWRLKVLHSLGKGIYCEIYKGNELIVPDQNQVFAIKDKMRELVEKDLPIEKRTFYKDEAREILMKEGLVKTVNLFKYRKKRTVKLYHCDGFWAYFYGYLPPSTGRIDVFDVQPYNQGLVLVHPDPKTRELPVIHMPKLSQVFLEYARWLNVLELEYVSDLNDIIARGERHVADLMLLSEALHEKKISDIADEIAKDKRKRLILIAGPSSSGKTTFAKRLSLQLRVNGLKPVAISLDDYFVDREKTPRDENGNYDFDSIEALDIELFNRNLQDLLAGKEVVLPKFNFKTGKRMRGPTLKLEKDNIIIVEGIHGLNERLTASIPKEQKFKIYVSALTQLNIDDHNRVTTTDTRLIRRIVRDYKFRGHTAYDTLKMWPNVRKGEERNIFPFQEEADVMFNSALVYEIPVLRIFAEPLLVQVPEDVPEYSEALRLLKLLDFFLPITNIEDIPDKSILREFIGRSIFKY,not soluble
20,MSLTWVSVEAKIDYELDPTVLFHLTEENAGDRFYYKKNDNKTSFFGYHAITRFKNDFENKQSIFREWQKYKSDIELIHPSSDKHHLKICGGFQFSMHKSGDEWREFGINHFILPEVLITMENGVSYITYTVKAEQFEIEQFKALIAHLTQNTIDSEFEIGNIKRIEDIYKDEWRDLVKDTIDVLDEHKKIVLARKRLVMFDKNINIPYILQKASQGEHNSYLFVLESQDSIFFSQTPEQLMEVNNGILSTKAVAGTIKRTHQDEVDKENIQAFLNDDKNLNEHRFVVESILNDIAPYVRDITFNETPQILTNDHLYHLYTKIKGQLENDSYIGLLDNLHPTPALGGYPKAEAIEYIEQNEFGTRGLYGAPVGYIDMNDDCEFIVAIRSMLIKKNQATLFAGCGIVKNSDADSEVEETAVKFNPMMKALGVEEYEGHHHHHH,not soluble
21,MSSGNILWGSQNPIVFKNSFGVSNADTGSQDDLSQQNPFAEGYGVLLILLMVIQAIANNKFIEVQKNAERARNTQEKSNEMDEVIAKAAKGDAKTKEEVPEDVIKYMRDNGILIDGMTIDDYMAKYGDHGKLDKGGLQAIKAALDNDANRNTDLMSQGQITIQKMSQELNAVLTQLTGLISKWGEISSMIAQKTYS,not soluble
22,MGSDKIHHHHHHMSLASFNPRVARLATPPIPSVFGWGRAYDAAAGPLIDLSQAAPGHPPHADLLAWLAQAAGSAEACGYGAIEGELVLRRAYCTHLSELYGAAFTPEQIHITAGANQAFICAAMALAGAGERIALTDPFYFNHDTTLAMLGIETVALPCDSDNGFLPDLDRAEQVVKSGIKALALVTPNNPTGAVYPKELLADLYRLCRAHGVWLIVDETYRDFLNPEFGRPHELFSQPDWPEGLIQIYSFSKSFAIPGHRLAAICAGGPVVEQIAKIMDNLQICAPRAAQIALAKALPVLDGWRAENAAEIARRTVALRRAFDLVPQWHLASIGAYFAFARHPFGQAASIDVAEQLARRAGILAVPGGFFGSRQEGYLRLAFANVDCPTIETLPDRLRTFTLAG,not soluble
